{"source": "FireProtDB (doi:10.1021/bi991422s)", "parents": {"B1": {"name": "Guanyl-specific ribonuclease T1, P00651 (parent)", "chain": "MMYSKLLTLTTLLLPTALALPSLVERACDYTCGSNCYSSSDVSTAQAAGYQLHEDGETVGSNSYPHKYNNYEGFDFSVSSPYYEWPILSSGDVYSGGSPGADRVVFNENNQLAGVITHTGASGNNFVECT"}}}
{"variants_of": "B1", "details": "Aspergillus oryzae (strain ATCC 42149 / RIB 40); pH 7; 15 °C; Thermal; DSC; MOPS 30 mM; reversible: yes; structure 1RN1; whole UniProt chain shown", "units": {"ddG of mutation (higher = less stable)": "kcal/mol", "heat capacity change of unfolding": "kcal/mol/K"}}
{"variant": "MMYSKLLTLTTLLLPTALALPSLVERACDYTCGSNCYSSSDVSTAQAAGYQLHEDGETVGSNSYPHKYNNYEGFDFSVSSPYYEWPILSSGDVYSGGSPGASRVVFNENNQLAGVITHTGASGNNFVECT", "note": "[D102S]", "ddG of mutation (higher = less stable)": 3.1, "heat capacity change of unfolding": 1.39}
{"variant": "MMYSKLLTLTTLLLPTALALPSLVERACDYTCGSNCYSSSDVSTAQAAGYQLHEDGETVGSNSYPHKYNNYEGFDFSVSSPYYEWPILSSGDVYSGGSPGAARVVFNENNQLAGVITHTGASGNNFVECT", "note": "[D102A]", "ddG of mutation (higher = less stable)": 3.8, "heat capacity change of unfolding": 1.39}
{"variants_of": "B1", "details": "Aspergillus oryzae (strain ATCC 42149 / RIB 40); pH 7; Thermal; DSC; MOPS 30 mM; reversible: yes; structure 1RN1; whole UniProt chain shown", "units": {"Tm": "°C", "change of melting temperature, mutant - wild type (higher = more stable)": "°C", "unfolding enthalpy (calorimetric)": "kcal/mol"}}
{"variant": "MMYSKLLTLTTLLLPTALALPSLVERACDYTCGSNCYSSSDVSTAQAAGYQLHEDGETVGSNSYPHKYNNYEGFDFSVSSPYYEWPILSSGDVYSGGSPGASRVVFNENNQLAGVITHTGASGNNFVECT", "note": "[D102S]", "Tm": 37.2, "change of melting temperature, mutant - wild type (higher = more stable)": -13.6, "unfolding enthalpy (calorimetric)": 77.6}
{"variant": "MMYSKLLTLTTLLLPTALALPSLVERACDYTCGSNCYSSSDVSTAQAAGYQLHEDGETVGSNSYPHKYNNYEGFDFSVSSPYYEWPILSSGDVYSGGSPGANRVVFNENNQLAGVITHTGASGNNFVECT", "note": "[D102N]", "Tm": 37, "change of melting temperature, mutant - wild type (higher = more stable)": -13.8, "unfolding enthalpy (calorimetric)": 76}
{"variant": "MMYSKLLTLTTLLLPTALALPSLVERACDYTCGSNCYSSSDVSTAQAAGYQLHEDGETVGSNSYPHKYNNYEGFDFSVSSPYYEWPILSSGDVYSGGSPGAARVVFNENNQLAGVITHTGASGNNFVECT", "note": "[D102A]", "Tm": 35.6, "change of melting temperature, mutant - wild type (higher = more stable)": -15.2, "unfolding enthalpy (calorimetric)": 71.1}
{"variants_of": "B1", "details": "Aspergillus oryzae (strain ATCC 42149 / RIB 40); pH 7; 5 °C; Urea; DSC; MOPS 30 mM; reversible: yes; structure 1RN1; whole UniProt chain shown", "units": {"ddG of mutation (higher = less stable)": "kcal/mol", "denaturant m value": "kcal/mol/M", "denaturant midpoint (higher = more stable)": "M", "unfolding free energy": "kcal/mol"}}
{"variant": "MMYSKLLTLTTLLLPTALALPSLVERACDYTCGSNCYSSSDVSTAQAAGYQLHEDGETVGSNSYPHKYNNYEGFDFSVSSPYYEWPILSSGDVYSGGSPGANRVVFNENNQLAGVITHTGASGNNFVECT", "note": "[D102N]", "ddG of mutation (higher = less stable)": 2.77, "denaturant m value": 1.53, "denaturant midpoint (higher = more stable)": 3.63, "unfolding free energy": 5.55}
{"variants_of": "B1", "details": "Aspergillus oryzae (strain ATCC 42149 / RIB 40); pH 7; 10 °C; Urea; DSC; MOPS 30 mM; reversible: yes; structure 1RN1; whole UniProt chain shown", "units": {"ddG of mutation (higher = less stable)": "kcal/mol", "denaturant m value": "kcal/mol/M", "denaturant midpoint (higher = more stable)": "M", "unfolding free energy": "kcal/mol"}}
{"variant": "MMYSKLLTLTTLLLPTALALPSLVERACDYTCGSNCYSSSDVSTAQAAGYQLHEDGETVGSNSYPHKYNNYEGFDFSVSSPYYEWPILSSGDVYSGGSPGANRVVFNENNQLAGVITHTGASGNNFVECT", "note": "[D102N]", "ddG of mutation (higher = less stable)": 2.87, "denaturant m value": 1.52, "denaturant midpoint (higher = more stable)": 3.3, "unfolding free energy": 5}
{"variants_of": "B1", "details": "Aspergillus oryzae (strain ATCC 42149 / RIB 40); pH 7; 15 °C; Urea; DSC; MOPS 30 mM; reversible: yes; structure 1RN1; whole UniProt chain shown", "units": {"ddG of mutation (higher = less stable)": "kcal/mol", "denaturant m value": "kcal/mol/M", "denaturant midpoint (higher = more stable)": "M", "unfolding free energy": "kcal/mol"}}
{"variant": "MMYSKLLTLTTLLLPTALALPSLVERACDYTCGSNCYSSSDVSTAQAAGYQLHEDGETVGSNSYPHKYNNYEGFDFSVSSPYYEWPILSSGDVYSGGSPGANRVVFNENNQLAGVITHTGASGNNFVECT", "note": "[D102N]", "ddG of mutation (higher = less stable)": 3.09, "denaturant m value": 1.41, "denaturant midpoint (higher = more stable)": 3.01, "unfolding free energy": 4.25}
{"variant": "MMYSKLLTLTTLLLPTALALPSLVERACDYTCGSNCYSSSDVSTAQAAGYQLHEDGETVGSNSYPHKYNNYEGFDFSVSSPYYEWPILSSGDVYSGGSPGAARVVFNENNQLAGVITHTGASGNNFVECT", "note": "[D102A]", "ddG of mutation (higher = less stable)": 3.7, "denaturant m value": 1.42, "denaturant midpoint (higher = more stable)": 2.57}
{"variants_of": "B1", "details": "Aspergillus oryzae (strain ATCC 42149 / RIB 40); pH 7; 20 °C; Urea; DSC; MOPS 30 mM; reversible: yes; structure 1RN1; whole UniProt chain shown", "units": {"ddG of mutation (higher = less stable)": "kcal/mol", "denaturant m value": "kcal/mol/M", "denaturant midpoint (higher = more stable)": "M", "unfolding free energy": "kcal/mol"}}
{"variant": "MMYSKLLTLTTLLLPTALALPSLVERACDYTCGSNCYSSSDVSTAQAAGYQLHEDGETVGSNSYPHKYNNYEGFDFSVSSPYYEWPILSSGDVYSGGSPGANRVVFNENNQLAGVITHTGASGNNFVECT", "note": "[D102N]", "ddG of mutation (higher = less stable)": 3.19, "denaturant m value": 1.48, "denaturant midpoint (higher = more stable)": 2.39, "unfolding free energy": 3.53}
{"variants_of": "B1", "details": "Aspergillus oryzae (strain ATCC 42149 / RIB 40); pH 7; 25 °C; Urea; DSC; MOPS 30 mM; reversible: yes; structure 1RN1; whole UniProt chain shown", "units": {"ddG of mutation (higher = less stable)": "kcal/mol", "denaturant m value": "kcal/mol/M", "denaturant midpoint (higher = more stable)": "M", "unfolding free energy": "kcal/mol"}}
{"variant": "MMYSKLLTLTTLLLPTALALPSLVERACDYTCGSNCYSSSDVSTAQAAGYQLHEDGETVGSNSYPHKYNNYEGFDFSVSSPYYEWPILSSGDVYSGGSPGANRVVFNENNQLAGVITHTGASGNNFVECT", "note": "[D102N]", "ddG of mutation (higher = less stable)": 3.51, "denaturant m value": 1.44, "denaturant midpoint (higher = more stable)": 1.8, "unfolding free energy": 2.58}
